Our source for the unfolding free energy values is FireProtDB (doi:10.1006/jmbi.2000.3776).

The conditions of the series: Escherichia coli (strain K12); pH 7; 4 °C; GdnHCl; CD; PBS; whole UniProt chain shown.

B1: Major outer membrane lipoprotein Lpp wild type, P69776 (protein)
chain: MKATKLVLGAVILGSTLLAGCSSNAKIDQLSSDVQTLNAKVDQLSNDVNAMRSDVQAAKDDAARANQRLDNMATKYRK
For the protein B1, the unfolding free energy is 18.8 kcal/mol.
